The values that follow come from EP4740967A1 (Shanghai Escugen Biotechnology Co., Ltd., dated 2026).

What all share (experiment): cell-based or functional assay
The target of test [1] is T1, human Claudin18.2 (human, UniProt P56856 1-261).
T1 sequence (looked up): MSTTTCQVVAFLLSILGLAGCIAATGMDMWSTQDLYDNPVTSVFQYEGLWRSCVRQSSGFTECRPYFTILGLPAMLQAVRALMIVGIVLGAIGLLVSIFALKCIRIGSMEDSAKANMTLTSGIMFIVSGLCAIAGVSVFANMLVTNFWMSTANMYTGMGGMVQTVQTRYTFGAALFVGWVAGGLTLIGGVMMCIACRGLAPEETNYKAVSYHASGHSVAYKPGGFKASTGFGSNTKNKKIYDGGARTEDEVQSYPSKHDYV

The target of test [2] is T1, human Claudin18.2. The source holds these as a separate data set.
Test [3] has as its target T1, human Claudin18.2. This is another data set of the same source.
In test [4] the target is T1, human Claudin18.2. The source holds these as a separate data set.

B1: 9D1-LD-38 (antibody, human IgG1, kappa, V domains shown)
VH: QIQLVQSGAEVKKPGASVKISCKASGYSFTDYHMNWVRQAPGKGLEWIGNIDPYYGSPTYNHKFKGRVTLTVDTSTSTAYMELSSLRSEDTAVYYCANYGRGNSFPYWGQGTLVTVSS
VL: DIVMTQSPSSLAVSLGERATINCKSSQSLLNSGNQRNYLTWYQQKPGQPPKLLIYWASTRESGVPDRFSGSGSGTDFTLTISSLQAEDVAVYYCQNDYSFPFTFGQGTKLEIKR
modifications: LD-38 linker-drug (Exatecan) on reduced interchain cysteine; main conjugation form one LD-38 molecule per light chain; LD-38 linker-drug (Exatecan) on reduced interchain cysteines; main conjugation form three LD-38 molecules per heavy chain (DAR 8 nominal, 7.8 measured)
Turning to B1, the “IC50 of in vitro cell killing on NUGC4-hClaudin18.2 cells (CCK-8 cell viability, 120 h)” value in test [1] came out at 0.728 nM. Moreover, the “IC50 of inhibition of proliferation of MC38-hClaudin18.2 cells (AlamarBlue cell viability, 72 h)” value in test [2] was 0.632 nM. Further, the “IC50 of in vitro cell killing on MC38-hClaudin18.2 cells (AlamarBlue cell viability)” value in test [3] stood at 1.36 nM. Also, the “IC50 of in vitro cell killing on HEK293-hClaudin18.2 cells (AlamarBlue cell viability, 72 h)” value in test [4] stood at 0.09 nM.
